The chains are these.
B1: HDV Ribozyme (parent)
chain: GGCCGGCAUGGUCCCAGCCUCCUCGCUGGCGCCGGCUGGGCAACAUUCCGAGGGGACCGUCCCCUCGGUAAUGGCGAAUGGGACCCA

The data set covers variants of B1. Nature of the data set: self-cleavage, relative activity (ratio to wild type); higher = more cleavage; co-transcriptional.
As to GGCCGGCAUGGUCCCAGCCUCCUCGUUGGCGCCGGCUGGGCAACAUUCCGAGGGGACCGUCCCCUCGGUAAUGGCGAAUGGGACCCG, the self-cleavage is 1.04.

GGCCGGCAUGGUCCCAGCCUCCUCGUUGGCGCCGGCUGGGCAACAUUCCGAGGGGACCGUCCCCUCGGUAAUGGCGAAUGGGACCCC: the self-cleavage was 0.953.

As for GGCCGGCAUGGUCCCAGCCUCCUCGUUGGCGCCGGCUGGGCAACAUUCCGAGGGGACCGUCCCCUCGGUAAUGGCGAAUGGGACCCU, the self-cleavage amounted to 1. To GGCCGGCAUGGUCCCAGCCUCCUCGUUGGCGCCGGCUGUGCAACAUUCCGAGGGGACCGUCCCCUCGGUAAUGGCGAAUGGGACCCA belongs 0.936; to GGCCGGCAUGGUCCCAGCCUCCUCGUUGGCGCCGGCUGCGCAACAUUCCGAGGGGACCGUCCCCUCGGUAAUGGCGAAUGGGACCCA, 0.475; to GGCCGGCAUGGUCCCAGCCUCCUCGUUGGCGCCGGCUGAGCAACAUUCCGAGGGGACCGUCCCCUCGGUAAUGGCGAAUGGGACCCA, 0.599.

Take GGCCGGCAUGGUCCCAGCCUCCUCGUUGACGCCGGCUGGGCAACAUUCCGAGGGGACCGUCCCCUCGGUAAUGGCGAAUGGGACCCA: the self-cleavage was 0.332. For GGCCGGCAUGGUCCCAGCCUCCUCGUUGCCGCCGGCUGGGCAACAUUCCGAGGGGACCGUCCCCUCGGUAAUGGCGAAUGGGACCCA, the self-cleavage turned out to be 0.0959. Under GGCCGGCAUGGUCCCAGCCUCCUCGUUGGCGCCGGCUGGGUAACAUUCCGAGGGGACCGUCCCCUCGGUAAUGGCGAAUGGGACCCA stands 1.06; under GGCCGGCAUGGUCCCAGCCUCCUCGUUGGCGCCGGCUGGGCAACAUUCCGAGGGGACCGUCCCCUCGGUAAUGGCGAAUGGGAACCA, 1.15. Under GGCCGGCAUGGUCCCAGCCUCCUCGUUGGCGCCGGCUGGGCAACAUUCCGAGGGGACCGUCCCCUCGGUAAUGGCGAAUGGGAUCCA stands 1.05. Under GGCCGGCAUGGUCCCAGCCUCCUCGUUGGCGCCGGCUGGGCAACAUUCCGAGGGGACAGUCCCCUCGGUAAUGGCGAAUGGGACCCA stands 1.03; under GGCCGGCAUGGUCCCAGCCUCCUCGUUGGCGCCGGCUGGGCAACAUUCCGAGGGGACGGUCCCCUCGGUAAUGGCGAAUGGGACCCA, 0.831; under GGCCGGCAUGGUCCCAGCCUCCUCGUUGGCGCCGGCUGGGCAACAUUCCGAGGGGACUGUCCCCUCGGUAAUGGCGAAUGGGACCCA, 1.16. Consider GGCCGGCAUGGUCCCAGCCUCCUCGUUGGCGCCGGCUGGGCAACAUUCCGAGGGGACCGUGCCCUCGGUAAUGGCGAAUGGGACCCA, for which the self-cleavage worked out at 1.19. Take GGCCGGCAUGGUCCCAGCCUCCUCGUUGGCGUCGGCUGGGCAACAUUCCGAGGGGACCGUCCCCUCGGUAAUGGCGAAUGGGACCCA: the self-cleavage was found to be 0.799.

On to GGCCGGCAUGGUCCCAGCCUCCUCGUUGGCGGCGGCUGGGCAACAUUCCGAGGGGACCGUCCCCUCGGUAAUGGCGAAUGGGACCCA, for which the self-cleavage was 0.125.

In the case of GGCCGGCAUGGUCCCAGCCUCCUCGUUGGCGACGGCUGGGCAACAUUCCGAGGGGACCGUCCCCUCGGUAAUGGCGAAUGGGACCCA, the self-cleavage was 0.256.

Take GGCCGGCAUGGUCCCAGCCUCCUCGUUCGCGCCGGCUGGGCAACAUUCCGAGGGGACCGUCCCCUCGGUAAUGGCGAAUGGGACCCA: the self-cleavage came to 0.19. Consider GGCCGGCAUGGUCCCAGCCUCCUCGUUUGCGCCGGCUGGGCAACAUUCCGAGGGGACCGUCCCCUCGGUAAUGGCGAAUGGGACCCA, for which the self-cleavage worked out at 0.277. To GGCCGGCAUGGUCCCAGCCUCCUCGUUGGCGCCGGCUGGGCAACAUUCCGAGGGGACCGUCCCGUCGGUAAUGGCGAAUGGGACCCA belongs 1.1; to GGCCGGCAUGGUCCCAGCCUCCUCGUUGGCGCCGGCUGGGCAACAUUCCGAGGGGACCGUCCCAUCGGUAAUGGCGAAUGGGACCCA, 0.979.

On to GGCCGGCAUGGUCCCAGCCUCCUCGUUGGCGCCGGCUGGGCAACAUUCCGAGGGGAUCGUCCCCUCGGUAAUGGCGAAUGGGACCCA, for which the self-cleavage is 1.05.

Regarding GGCCGGCAUGGUCCCAGCCUCCUCGUUGGCGCCCGCUGGGCAACAUUCCGAGGGGACCGUCCCCUCGGUAAUGGCGAAUGGGACCCA, the self-cleavage worked out at 0.224. On to GGCCGGCAUGGUCCCAGCCUCCUCGUUGGCGCAGGCUGGGCAACAUUCCGAGGGGACCGUCCCCUCGGUAAUGGCGAAUGGGACCCA, for which the self-cleavage came to 0.307. To GGCCGGCAUGGUCCCAGCCUCCUCGUUGGCGCCGGCUGGGCAACAUUCCGAGGGGACCGUCCCCUCGGUAAUGGCGAAUGGGACCGA belongs 1.14; to GGCCGGCAUGGUCCCAGCCUCCUCGUUGGCGCCGGCUGGGCAACAUUCCGAGGGGACCGUCCCCUCGGUAAUGGCGAAUGGGACCUA, 0.831; to GGCCGGCAUGGUCCCAGCCUCCUCGUUGGCGCCGGCUGGGCAACAUUCCGAGGGGACCGUCCCCUCGGUAAUGGCGAAUGGGACCAA, 0.99. GGCCGGCAUGGUCCCAGCCUCCUCGUUGGCGCCGCCUGGGCAACAUUCCGAGGGGACCGUCCCCUCGGUAAUGGCGAAUGGGACCCA: the self-cleavage came to 0.288.

In the case of GGCCGGCAUGGUCCCAGCCUCCUCGUUGGCGCCGUCUGGGCAACAUUCCGAGGGGACCGUCCCCUCGGUAAUGGCGAAUGGGACCCA, the self-cleavage is 0.641. Turning to GGCCGGCAUGGUCCCAGCCUCCUCGUUGGCGCCGGCUGGGCAACAUUCCGAGGGGACCGUCCCCUCGGUAAUGGCGAUUGGGACCCA, the self-cleavage was found to be 0.743. Regarding GGCCGGCAUGGUCCCAGCCUCCUCGUUGGCGCCGGCUGGGCAACAUUCCGAGGGGACCGUCCCCUCGGUAAUGGCGAGUGGGACCCA, the self-cleavage turned out to be 1.07.

The values above are taken from the RNAGym collection of RNA variant scans (doi:10.7554/elife.80360).
